Our source for the stoichiometry N values is article PMC5004352.

This test addresses SoPIP2;1 wild type (Spinacia oleracea). Put plainly: SDS-PAGE (SDS-resistant oligomers); purified protein mixed with SDS sample loading buffer (125 mM Tris-HCl pH 6.8, 20% glycerol, 4% SDS), 10 min at room temperature, 12% gel, Coomassie; WT also pre-incubated with DTT or β-mercaptoethanol for varying times; WT against mutants with 10% β-mercaptoethanol in the loading buffer; monomer to dimer.

As usually defined, the stoichiometry N is the number of molecules, sites or subunits per partner or assembly.

With SoPIP2;1 wild type (natural protein), the stoichiometry N is 2.
